Consider 84 variants from the RNAGym collection of RNA variant scans (doi:10.1073/pnas.2313332121).

The labels stand for the following.
B1: TPR 5TU (parent)
chain: GGAUCUUCUCGAUCUAACAAAAAAGACAAAUCUGCCACAAAGCUUGAGAGCAUCUUCGGAUGCAGAGGCGGCAGCCUUCGGUGGCGCGAUAGCGCCAACGUUCUCAACUAUGACACGCAAAACGCGUGCUCCGUUGAAUGGAGUUUAUCAUG

Fewer inactive variants are shown than the library holds.

The data set covers variants of B1. The data set can be described thus: polymerase ribozyme fitness, log enrichment relative to wild type (log ratio); higher = more active; in vitro selection for triplet polymerase activity. Summed up:
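One round of in vitro selection, in triplicate, was applied to PCR-built, transcribed mutant libraries of each subunit of a heterodimeric triplet polymerase ribozyme. The steps were annealing with a biotinylated primer, partner subunit and triplets, incubation frozen at −7 °C, gel excision of extended constructs, streptavidin-bead capture and RT-PCR. Fitness is the logarithm, base 2, of genotype enrichment over wild-type enrichment from inverse-variance-weighted replicate averages of Illumina-sequenced inputs and outputs, keeping genotypes with ≥10 input reads and ≥1 read per output.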
With U31C, the “polymerase ribozyme fitness (log ratio)” value stood at 0.947.

Turning to U31C C76U C96U G136C U144C U148C, the “polymerase ribozyme fitness (log ratio)” value is -3.9.

On to U31G C38G U101G U139C U146G, for which the “polymerase ribozyme fitness (log ratio)” value is -4.03.

Take U31G A40U G48A G84A C87U A119U: the “polymerase ribozyme fitness (log ratio)” value was at most -4.2.

Turning to A30U A49C G58A A119C G128U U134G, the “polymerase ribozyme fitness (log ratio)” value was at most -4.2.

In the case of U31C U45A G70C G92C, the “polymerase ribozyme fitness (log ratio)” value is at most -4.2.

Turning to C32U G34C C51U U130G U145A, the “polymerase ribozyme fitness (log ratio)” value was at most -4.2.

A30C U53A U78G G84U A137G: the “polymerase ribozyme fitness (log ratio)” value was at most -4.2.

For A30G G86A, the “polymerase ribozyme fitness (log ratio)” value was -3.45.

In the case of C32G C36U C69U, the “polymerase ribozyme fitness (log ratio)” value is at most -4.2.

As for A30C G92A G100C, the “polymerase ribozyme fitness (log ratio)” value is at most -4.2.

As to A30G U44A A49U C87U G88A G92A A115U, the “polymerase ribozyme fitness (log ratio)” value is at most -4.2.

Turning to C32U G94U C116G, the “polymerase ribozyme fitness (log ratio)” value is -3.95.

On to U31G U56A, for which the “polymerase ribozyme fitness (log ratio)” value came out at 0.083.

With C32G G46A A52G U53A A60U C87A A89U A142U, the “polymerase ribozyme fitness (log ratio)” value was at most -4.2.

Consider A30U U134C, for which the “polymerase ribozyme fitness (log ratio)” value was -3.45.

Consider C32A A40U G62U C85G U146A, for which the “polymerase ribozyme fitness (log ratio)” value was at most -4.2.

In the case of U31G C99U U145G, the “polymerase ribozyme fitness (log ratio)” value was -0.861.

Consider U31G G59A, for which the “polymerase ribozyme fitness (log ratio)” value was 0.625.

In the case of A30C C96G, the “polymerase ribozyme fitness (log ratio)” value is -4.03.

A30U U53A: the “polymerase ribozyme fitness (log ratio)” value is -3.18.

For the variant U31C G94C C105A, the “polymerase ribozyme fitness (log ratio)” value is -1.61.

Regarding C32A U77G G88A G126C G143U, the “polymerase ribozyme fitness (log ratio)” value was at most -4.2.

Turning to A30C G42A C54U G58A U90G C93G C96U C125A U148A, the “polymerase ribozyme fitness (log ratio)” value was at most -4.2.

On to A30G A41U C69G C76U G94U U102G U130C, for which the “polymerase ribozyme fitness (log ratio)” value is at most -4.2.

Regarding U31G G81U C87G U104G G128C, the “polymerase ribozyme fitness (log ratio)” value is at most -4.2.

On to U33A, for which the “polymerase ribozyme fitness (log ratio)” value was -3.29.

With U33G, the “polymerase ribozyme fitness (log ratio)” value was -2.4.

Turning to U33C, the “polymerase ribozyme fitness (log ratio)” value was -1.48.

C32G G50C C51U G88A A110G: the “polymerase ribozyme fitness (log ratio)” value was -4.19.

U31C C93U A120G: the “polymerase ribozyme fitness (log ratio)” value turned out to be 0.174.

Take U33A C69G C87G: the “polymerase ribozyme fitness (log ratio)” value was at most -4.2.

A30U C54A U55G G86C C105A A119G G136U A142U: the “polymerase ribozyme fitness (log ratio)” value is at most -4.2.

For A30G A138G, the “polymerase ribozyme fitness (log ratio)” value is at most -4.2.

On to U33A A49C G50C C76A C85G A138U U151C, for which the “polymerase ribozyme fitness (log ratio)” value is at most -4.2.

Consider G34U A37G G50U A89C G92A A138U, for which the “polymerase ribozyme fitness (log ratio)” value was at most -4.2.

On to A30U G70A, for which the “polymerase ribozyme fitness (log ratio)” value was at most -4.2.

For U33A C43A C76U G92A G117U, the “polymerase ribozyme fitness (log ratio)” value was -3.86.

With C32G A39G G58U G143C, the “polymerase ribozyme fitness (log ratio)” value was -4.1.

In the case of U31G U61A A66G U90C U101C, the “polymerase ribozyme fitness (log ratio)” value was at most -4.2.

For the variant C32G U33A C43G G81U G84A A142G, the “polymerase ribozyme fitness (log ratio)” value was at most -4.2.

With A30U G58A C87U U90G U101A A110C G112A G126U, the “polymerase ribozyme fitness (log ratio)” value was at most -4.2.

Regarding C32G C76G G84C C118U C132G G133C, the “polymerase ribozyme fitness (log ratio)” value was at most -4.2.

C32G C35U C72G A106C: the “polymerase ribozyme fitness (log ratio)” value was at most -4.2.

U33C G71C: the “polymerase ribozyme fitness (log ratio)” value is at most -4.2.

Consider C32U A49U C51U C75U U102C U146G, for which the “polymerase ribozyme fitness (log ratio)” value was at most -4.2.

Consider U33G G80C C85G, for which the “polymerase ribozyme fitness (log ratio)” value is at most -4.2.

For A30U A49G, the “polymerase ribozyme fitness (log ratio)” value is at most -4.2.

With U33C C51U G59C C63A A120C C125G U134G, the “polymerase ribozyme fitness (log ratio)” value is at most -4.2.

With C32U U77G C103G A138U, the “polymerase ribozyme fitness (log ratio)” value was at most -4.2.

Regarding C32G U53C C76A, the “polymerase ribozyme fitness (log ratio)” value is -4.09.

Regarding A30U G74A C93G C103A A106G A113U, the “polymerase ribozyme fitness (log ratio)” value is at most -4.2.

In the case of G34A C36G C69G C76A C95G G112A, the “polymerase ribozyme fitness (log ratio)” value was at most -4.2.

As to U33A U145C, the “polymerase ribozyme fitness (log ratio)” value is -4.

As to U31C C85G A98G, the “polymerase ribozyme fitness (log ratio)” value is -1.26.

For the variant C32A C38U U55A G94A G126C, the “polymerase ribozyme fitness (log ratio)” value is -3.92.

As to A30U C35U A52C C96U A107G C108G C114A, the “polymerase ribozyme fitness (log ratio)” value was at most -4.2.

Regarding C32G U53A C79U G140U, the “polymerase ribozyme fitness (log ratio)” value is -4.06.

Regarding U31G A39C G50A G92U G117A G140U U145A A147G, the “polymerase ribozyme fitness (log ratio)” value is at most -4.2.

Consider A30U G92U, for which the “polymerase ribozyme fitness (log ratio)” value is -3.52.

Take U31A A49C C93U C118A A121U: the “polymerase ribozyme fitness (log ratio)” value is at most -4.2.

Take G34C C51A G58A G59C C96A A107U: the “polymerase ribozyme fitness (log ratio)” value is at most -4.2.

Take U31A C93A U127C: the “polymerase ribozyme fitness (log ratio)” value was -3.92.

For U31C C32A G80C G81A A115C C118G G133A, the “polymerase ribozyme fitness (log ratio)” value was at most -4.2.

With U33G C95U, the “polymerase ribozyme fitness (log ratio)” value was -2.22.

With U31A G67U G83A C85A U104G C105U G136A, the “polymerase ribozyme fitness (log ratio)” value was at most -4.2.

As to A30C U55G C95A U135G U148A, the “polymerase ribozyme fitness (log ratio)” value was -3.85.

With U33A G50C U56A C76A G81C, the “polymerase ribozyme fitness (log ratio)” value is at most -4.2.

Turning to A30C C95G C108U C132G G133U, the “polymerase ribozyme fitness (log ratio)” value is at most -4.2.

In the case of U31A A91G U144G, the “polymerase ribozyme fitness (log ratio)” value is -1.84.

Consider A30G C87A A91C A110U A115U U135C, for which the “polymerase ribozyme fitness (log ratio)” value was at most -4.2.

For the variant A30G C35G G59U A113C C131A, the “polymerase ribozyme fitness (log ratio)” value was at most -4.2.

Take A30G C85U G128A: the “polymerase ribozyme fitness (log ratio)” value was at most -4.2.

On to U31C G92C G126U, for which the “polymerase ribozyme fitness (log ratio)” value was 0.158.

As to U31A C75G C95U C118U, the “polymerase ribozyme fitness (log ratio)” value is -3.7.

On to A30U C69U C85U A106G C123U A137G, for which the “polymerase ribozyme fitness (log ratio)” value is at most -4.2.

Consider G34C G74A U109A C123U C149U, for which the “polymerase ribozyme fitness (log ratio)” value was at most -4.2.

With U31G C35U C57U G117A, the “polymerase ribozyme fitness (log ratio)” value was -0.0701.

Turning to A30C G46U G94U G143A, the “polymerase ribozyme fitness (log ratio)” value is at most -4.2.

As for U31G A91U, the “polymerase ribozyme fitness (log ratio)” value is -4.03.

Consider G34C C87U, for which the “polymerase ribozyme fitness (log ratio)” value was -3.33.

Turning to A30C G92A U104A A106C C108A, the “polymerase ribozyme fitness (log ratio)” value was at most -4.2.

Regarding U33G G94A C123G G136A, the “polymerase ribozyme fitness (log ratio)” value was at most -4.2.

Consider U31C C35U A41G C54U G86C, for which the “polymerase ribozyme fitness (log ratio)” value is -2.75.
